These results are taken from US20070142283A1.

The test addresses recombinant FGF-2 (rFGF-2) of SEQ ID NO: 2 (bovine) (UniProt P03969). The test can be described thus: commercial ELISA for human FGF-2 (R&D Systems), cross-reactivity against human FGF-2.
Sequence of UniProt P03969 (P03969 10-155 limits assumed): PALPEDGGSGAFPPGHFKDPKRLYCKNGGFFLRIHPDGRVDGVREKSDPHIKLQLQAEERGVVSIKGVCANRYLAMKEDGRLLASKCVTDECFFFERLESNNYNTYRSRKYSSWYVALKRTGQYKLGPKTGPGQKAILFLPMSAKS

In the case of “commercially available ELISA (R&D Systems, Minneapolis Minn.) that was marketed for analysis of human FGF-2 (antibody)”, the cross-reactivity was 100%.
